B1: target 1 insG 3' of 7,insC 3' of 3 (mixed)
RNA 1: CACCCGUGCAAAAAUGCAGGGGUCUAAAACUGAGCGGAUAACCUCUCUAUGG
RNA 2: GGGAAUGGAUCCACAUCUACGAAUUCGUACCAUAGAGAGGUUAUCGCGCUCCACCGAGAUCGGAAGAGCACACGU
B2: target 1 insA 3' of 2,insA 3' of 2 (mixed)
RNA 1: B1 RNA 1
RNA 2: B1 RNA 2 with G46C, C47G, G48C, C49U, U50C, C51A, C52A
B3: target 1 insA 3' of 2,insU 3' of 1 (mixed)
RNA 1: B1 RNA 1
RNA 2: B1 RNA 2 with G46C, C47G, G48C, C49U, U50C, C51A, C52A, A53U
B4: target 1 insG 3' of 10,insG 3' of 9 (mixed)
RNA 1: B1 RNA 1
RNA 2: B1 RNA 2 with A43G, U44A, C45G, G46U, G48C, C49G, U50C, C51U
B5: target 1 insA 3' of 2,insC 3' of 1 (mixed)
RNA 1: B1 RNA 1
RNA 2: B1 RNA 2 with G46C, C47G, G48C, C49U, U50C, C51A, C52A, A53C
B6: target 1 insG 3' of 14,insG 3' of 7 (mixed)
RNA 1: B1 RNA 1
RNA 2: GGGAAUGGAUCCACAUCUACGAAUUCGUACCAUAGAGAGGGUUAUCGCGCUCACCGAGAUCGGAAGAGCACACGU
B7: target 1 C7A,U19G (mixed)
RNA 1: B1 RNA 1
RNA 2: GGGAAUGGAUCCACAUCUACGAAUUCGUACCAGAGAGAGGUUAUACGCUCACCGAGAUCGGAAGAGCACACGU
B8: target 1 insA 3' of 2,insG 3' of 1 (mixed)
RNA 1: B1 RNA 1
RNA 2: B6 RNA 2 with G41U, U43A, A44U, U45C, G49U, U51A, C52A, A53G
B9: target 1 insA 3' of 12,insG 3' of 6 (mixed)
RNA 1: B1 RNA 1
RNA 2: B6 RNA 2 with G41A, G47C, C48G
B10: target 1 A9G,G13A (mixed)
RNA 1: B1 RNA 1
RNA 2: B7 RNA 2 with G33U, G39A, A43G, A45C
B11: target 1 U3A,G15C (mixed)
RNA 1: B1 RNA 1
RNA 2: B7 RNA 2 with G33U, G37C, A45C, U49A
B12: target 1 insU 3' of 13,insG 3' of 3 (mixed)
RNA 1: B1 RNA 1
RNA 2: B6 RNA 2 with G40U, G47C, C48G, G49C, C50U, U51G
B13: target 1 insA 3' of 13,insG 3' of 11 (mixed)
RNA 1: B1 RNA 1
RNA 2: B6 RNA 2 with G40A, U43G, A44U, U45A, C46U, G47C
B14: target 1 insC 3' of 22,insC 3' of 13 (mixed)
RNA 1: B1 RNA 1
RNA 2: GGGAAUGGAUCCACAUCUACGAAUUCGUACCCAUAGAGAGCGUUAUCCGCUCACCGAGAUCGGAAGAGCACACGU
B15: target 1 C6G,G15U (mixed)
RNA 1: B1 RNA 1
RNA 2: B7 RNA 2 with G33U, G37U, A45C, C46G
B16: target 1 G5C,U11C (mixed)
RNA 1: B1 RNA 1
RNA 2: B7 RNA 2 with G33U, U41C, A45C, G47C
B17: target 1 C7G,A18C (mixed)
RNA 1: B1 RNA 1
RNA 2: B7 RNA 2 with G33U, A34C, A45G
B18: target 1 insC 3' of 14,insU 3' of 12 (mixed)
RNA 1: B1 RNA 1
RNA 2: B6 RNA 2 with G39C, A44U, U45A, C46U, G47C
B19: target 1 complement block 5-11 (mixed)
RNA 1: B1 RNA 1
RNA 2: B7 RNA 2 with G33U, U41A, U42A, A43U, U44A, A45G, C46G, G47C
B20: target 1 insA 3' of 8,insU 3' of 6 (mixed)
RNA 1: B1 RNA 1
RNA 2: B6 RNA 2 with G41U, U43A, A44U, U45A, G47C, C48U
B21: target 1 A1U,U19C (mixed)
RNA 1: B1 RNA 1
RNA 2: B7 RNA 2 with G33C, A45C, A51U
B22: target 1 C4A,C21U (mixed)
RNA 1: B1 RNA 1
RNA 2: B7 RNA 2 with C31U, G33U, A45C, C48A
B23: target 1 U3G,G12C (mixed)
RNA 1: B1 RNA 1
RNA 2: B7 RNA 2 with G33U, G40C, A45C, U49G
B24: target 1 insC 3' of 3,insC 3' of 3 (mixed)
RNA 1: B1 RNA 1
RNA 2: B1 RNA 2 with G46C, C47G, G48C, C49U, U50C
B25: target 1 insU 3' of 20,insA 3' of 10 (mixed)
RNA 1: B1 RNA 1
RNA 2: B14 RNA 2 with C32A, A33U, C41G, G42U, U44A
B26: target 1 insU 3' of 9,insU 3' of 9 (mixed)
RNA 1: B1 RNA 1
RNA 2: B6 RNA 2 with G41U, U43A, A44U, C46U, G47C
B27: target 1 G12A,U19A (mixed)
RNA 1: B1 RNA 1
RNA 2: B7 RNA 2 with G33A, G40A, A45C
B28: target 1 C7G,C22G (mixed)
RNA 1: B1 RNA 1
RNA 2: B7 RNA 2 with C30G, G33U, A45G

Changes are numbered by the printed parent chain. Numbers in names are those of the source.

In the data set the target is T1, EsCas13d, nuclease-dead (Eubacterium siraeum, UniProt B0MS50, R295A;H300A;R849A;H854A).
T1 sequence: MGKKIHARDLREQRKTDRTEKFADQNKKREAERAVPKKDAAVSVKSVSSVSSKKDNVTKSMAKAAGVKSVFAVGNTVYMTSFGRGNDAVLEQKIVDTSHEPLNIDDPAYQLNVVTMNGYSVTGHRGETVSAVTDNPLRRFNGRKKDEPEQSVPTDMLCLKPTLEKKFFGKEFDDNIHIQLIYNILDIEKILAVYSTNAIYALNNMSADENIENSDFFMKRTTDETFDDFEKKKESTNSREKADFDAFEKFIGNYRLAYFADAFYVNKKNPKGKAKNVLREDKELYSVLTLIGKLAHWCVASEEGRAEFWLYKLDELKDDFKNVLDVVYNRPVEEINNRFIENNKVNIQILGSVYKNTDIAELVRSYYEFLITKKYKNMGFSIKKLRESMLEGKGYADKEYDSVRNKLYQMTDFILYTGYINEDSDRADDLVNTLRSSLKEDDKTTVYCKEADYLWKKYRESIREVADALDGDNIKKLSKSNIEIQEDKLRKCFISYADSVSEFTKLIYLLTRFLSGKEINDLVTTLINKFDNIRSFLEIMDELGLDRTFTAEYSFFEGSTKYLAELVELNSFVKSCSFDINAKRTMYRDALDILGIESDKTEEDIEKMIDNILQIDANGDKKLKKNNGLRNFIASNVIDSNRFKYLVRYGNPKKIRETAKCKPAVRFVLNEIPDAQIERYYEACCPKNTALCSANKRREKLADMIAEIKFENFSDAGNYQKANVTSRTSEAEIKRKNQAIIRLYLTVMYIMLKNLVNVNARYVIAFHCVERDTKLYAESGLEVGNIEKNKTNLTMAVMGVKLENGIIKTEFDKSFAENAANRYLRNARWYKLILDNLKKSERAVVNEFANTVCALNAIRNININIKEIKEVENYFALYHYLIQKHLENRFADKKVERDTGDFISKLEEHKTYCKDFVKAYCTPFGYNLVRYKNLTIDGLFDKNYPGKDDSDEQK
Briefly: crRNA (strand 1, pre-loaded); Mg2+; 40 mM Tris-HCl pH 7.5, 150 mM NaCl, 6 mM MgCl2, 1 mM DTT, 0.1% Tween-20, 0.2 mg/ml BSA; 25 C; 10 min per concentration, then washed. The conditions noted are these: tags: His6-TwinStrep-SUMO cleaved; N-terminal SNAP kept (SNAP-Surface 488); label: 3' end held by stalled T7 RNA polymerase.
A word on the Kd: it is the equilibrium constant for the complex coming apart. Low values mean a tighter complex, high ones a looser complex. With B1, the Kd came to 0.00668 ± 0.00019 µM.

B2 gave a Kd of 0.0096 ± 0.0004 µM. Consider B3, for which the dissociation constant (Kd) amounted to 0.0105 ± 0.0006 µM.

As to B4, the affinity, expressed as Kd, was 0.0088 ± 0.0005 µM. With B5 the figure was 0.0085 ± 0.0006 µM; with B6, 0.0068 ± 0.00028 µM. B7 showed a Kd of 0.055 ± 0.006 µM. This Kd lies about 8.1-fold higher than the previous one.

In the case of B8, the Kd was determined as 0.0086 ± 0.0006 µM. The result for B9 reads 0.028 ± 0.004 µM. With B10 the figure was 0.0084 ± 0.0004 µM.

On to B11, for which the dissociation constant Kd turned out to be 0.0329 ± 0.0025 µM. The result for B12 reads 0.0144 ± 0.0019 µM; that for B13, 0.0132 ± 0.0008 µM; that for B14, 0.043 ± 0.015 µM.

As for B15, the affinity, expressed as Kd, was 0.036 ± 0.005 µM. B16 yielded a Kd of 0.0168 ± 0.0011 µM. With B17 the figure was 0.081 ± 0.011 µM; with B18, 0.043 ± 0.009 µM. The result for B19 reads 0.0192 ± 0.0006 µM.

Consider B20, for which the Kd came out at 0.0235 ± 0.0014 µM. This Kd and that of the molecule before are within 1.5-fold of each other.

In turn, B21 returned a Kd of 0.0222 ± 0.0016 µM.

For the molecule B22, the Kd was 0.0044 ± 0.0007 µM.

The molecule B23 showed a Kd of 0.0081 ± 0.0009 µM.

B24: binding was put at a Kd of 0.043 ± 0.015 µM. For the molecule B25, binding was characterised by a dissociation constant (Kd) of 0.0194 ± 0.0011 µM. The result for B26 reads 0.0188 ± 0.001 µM; that for B27, 0.051 ± 0.011 µM. B28 showed a Kd of 0.038 ± 0.006 µM.

(Values after article PMC10786891, “Massively parallel profiling of RNA-targeting CRISPR-Cas13d”.)
